The supplement of paper PMC11246515
± gives the standard deviation of the averaged measurements.

Experiment: total protein half-life in vivo (active degradation + dilution); higher = more stable protein
[1] = E. coli NCM3722 delta-clpP delta-lon delta-hslV, growth: N-lim chemostat, doubling time 6 h
[2] = E. coli NCM3722 delta-clpP, growth: N-lim chemostat, doubling time 6 h
[3] = E. coli NCM3722 delta-hslV, growth: N-lim chemostat, doubling time 6 h
[4] = E. coli NCM3722 delta-lon, growth: N-lim chemostat, doubling time 6 h
[5] = E. coli NCM3722 delta-smpB, growth: N-lim chemostat, doubling time 6 h
[6] = wild type E. coli NCM3722, growth: C-lim chemostat, doubling time 3 h
[7] = wild type E. coli NCM3722, growth: C-lim chemostat, doubling time 6 h
[8] = wild type E. coli NCM3722, growth: C-lim chemostat, doubling time 12 h
[9] = wild type E. coli NCM3722, growth: N-lim chemostat, doubling time 6 h
[10] = wild type E. coli NCM3722, growth: N-lim chemostat, doubling time 12 h
[11] = wild type E. coli NCM3722, growth: P-lim chemostat, doubling time 6 h
[12] = wild type E. coli NCM3722, growth: P-lim chemostat, doubling time 12 h

Sequence	total protein half-life in vivo [1]	total protein half-life in vivo [2]	total protein half-life in vivo [3]	total protein half-life in vivo [4]	total protein half-life in vivo [5]	total protein half-life in vivo [6]	total protein half-life in vivo [7]	total protein half-life in vivo [8]	total protein half-life in vivo [9]	total protein half-life in vivo [10]	total protein half-life in vivo [11]	total protein half-life in vivo [12]
MAGNDREPIGRKGKPTRPVKQKVSRRRYEDDDDYDDYDDYEDEEPMPRKGKGKGKGRKPRGKRGWLWLLLKLAIVFAVLIAIYGVYLDQKIRSRIDGKVWQLPAAVYGRMVNLEPDMTISKNEMVKLLEATQYRQVSKMTRPGEFTVQANSIEMIRRPFDFPDSKEGQVRARLTFDGDHLATIVNMENNRQFGFFRLDPRLITMISSPNGEQRLFVPRSGFPDLLVDTLLATEDRHFYEHDGISLYSIGRAVLANLTAGRTVQGASTLTQQLVKNLFLSSERSYWRKANEAYMALIMDARYSKDRILELYMNEVYLGQSGDNEIRGFPLASLYYFGRPVEELSLDQQALLVGMVKGASIYNPWRNPKLALERRNLVLRLLQQQQIIDQELYDMLSARPLGVQPRGGVISPQPAFMQLVRQELQAKLGDKVKDLSGVKIFTTFDSVAQDAAEKAAVEGIPALKKQRKLSDLETAIVVVDRFSGEVRAMVGGSEPQFAGYNRAMQARRSIGSLAKPATYLTALSQPKIYRLNTWIADAPIALRQPNGQVWSPQNDDRRYSESGRVMLVDALTRSMNVPTVNLGMALGLPAVTETWIKLGVPKDQLHPVPAMLLGALNLTPIEVAQAFQTIASGGNRAPLSALRSVIAEDGKVLYQSFPQAERAVPAQAAYLTLWTMQQVVQRGTGRQLGAKYPNLHLAGKTGTTNNNVDTWFAGIDGSTVTITWVGRDNNQPTKLYGASGAMSIYQRYLANQTPTPLNLVPPEDIADMGVDYDGNFVCSGGMRILPVWTSDPQSLCQQSEMQQQPSGNPFDQSSQPQQQPQQQPAQQEQKDSDGVAGWIKDMFGSN	6.443 ± 0.011 h	6.43 ± 0.51 h	6.2211 ± 0.00055 h	6.266 ± 0.031 h	6.19 ± 0.56 h	3.17 ± 0.036 h	6.09 ± 0.71 h	12.4 ± 1.3 h	6.01 ± 0.19 h	12.5 ± 0.15 h	6.15 ± 0.58 h	12.4 ± 0.17 h
MAGNTIGQLFRVTTFGESHGLALGCIVDGVPPGIPLTEADLQHDLDRRRPGTSRYTTQRREPDQVKILSGVFEGVTTGTSIGLLIENTDQRSQDYSAIKDVFRPGHADYTYEQKYGLRDYRGGGRSSARETAMRVAAGAIAKKYLAEKFGIEIRGCLTQMGDIPLDIKDWSQVEQNPFFCPDPDKIDALDELMRALKKEGDSIGAKVTVVASGVPAGLGEPVFDRLDADIAHALMSINAVKGVEIGDGFDVVALRGSQNRDEITKDGFQSNHAGGILGGISSGQQIIAHMALKPTSSITVPGRTINRFGEEVEMITKGRHDPCVGIRAVPIAEAMLAIVLMDHLLRQRAQNADVKTDIPRW	5.73 ± 0.43 h	5.29 ± 0.1 h	5.199 ± 0.021 h	–	4.78 ± 0.14 h	3.41 ± 0.23 h	5.92 ± 0.13 h	12 ± 0.84 h	5.09 ± 0.23 h	9.61 ± 0.79 h	6.51 ± 0.34 h	12.6 ± 1.4 h
MAGPVLYQDRAMKQITFAPRNHLLTNTNTWTPDSQWLVFDVRPSGASFTGETIERVNIHTGEVEVIYRASQGAHVGVVTVHPKSEKYVFIHGPENPDETWHYDFHHRRGVIVEGGKMSNLDAMDITAPYTPGVLRGGSHVHVFSPNGERVSFTYNDHVMHELDPALDLRNVGVAAPFGPVNVQKQHPREYSGSHWCVLVSKTTPTPQPGSDEINRAYEEGWVGNHALAFIGDTLSPKGEKVPELFIVELPQDEAGWKAAGDAPLSGTETTLPAPPRGVVQRRLTFTHHRAYPGLVNVPRHWVRCNPQGTQIAFLMRDDNGIVQLWLISPQGGEPRQLTHNKTDIQSAFNWHPSGEWLGFVLDNRIACAHAQSGEVEYLTEHHANSPSADAVVFSPDGQWLAWMEGGQLWITETDR	5.27 ± 0.21 h	4.73 ± 0.52 h	4.97 ± 0.094 h	4.8 ± 0.15 h	4.67 ± 0.09 h	3.17 ± 0.043 h	5.92 ± 0.44 h	11.1 ± 1.4 h	4.8 ± 0.56 h	8.45 ± 0.1 h	6.23 ± 0.21 h	11.3 ± 0.79 h
MAGWFELSKSSDNQFRFVLKAGNGETILTSELYTSKTSAEKGIASVRSNSPQEERYEKKTASNGKFYFNLKAANHQIIGSSQMYATAQSRETGIASVKANGTSQTVKDNT	–	5.5 ± 0.46 h	6 ± 0.94 h	6.31 ± 1.2 h	5.48 ± 0.5 h	3.2 ± 0.24 h	5.83 ± 0.21 h	11.2 ± 0.74 h	5.24 ± 0.059 h	9.51 ± 0.29 h	5.54 ± 0.092 h	11 ± 0.41 h
MAHPPRLNDDKPVIWTVSVTRLFELFRDISLEFDHLANITPIQLGFEKAVTYIRKKLANERCDAIIAAGSNGAYLKSRLSVPVILIKPSGYDVLQALAKAGKLTSSIGVVTYQETIPALVAFQKTFNLRLDQRSYITEEDARGQINELKANGTEAVVGAGLITDLAEEAGMTGIFIYSAATVRQAFSDALDMTRMSLRHNTHDATRNALRTRYVLGDMLGQSPQMEQVRQTILLYARSSAAVLIEGETGTGKELAAQAIHREYFARHDARQGKKSHPFVAVNCGAIAESLLEAELFGYEEGAFTGSRRGGRAGLFEIAHGGTLFLDEIGEMPLPLQTRLLRVLEEKEVTRVGGHQPVPVDVRVISATHCNLEEDMQQGRFRRDLFYRLSILRLQLPPLRERVADILPLAESFLKVSLAALSAPFSAALRQGLQASETVLLHYDWPGNIRELRNMMERLALFLSVEPTPDLTPQFMQLLLPELARESAKTPAPRLLTPQQALEKFNGDKTAAANYLGISRTTFWRRLKS	4.26 ± 0.052 h	2.4 ± 0.6 h	–	2.71 h	2.277 ± 0.021 h	2.18 ± 0.55 h	4.02 ± 0.54 h	5.89 ± 0.42 h	2.53 ± 0.25 h	4.31 h	–	–
MAHRPRWTLSQVTELFEKPLLDLLFEAQQVHRQHFDPRQVQVSTLLSIKTGACPEDCKYCPQSSRYKTGLEAERLMEVEQVLESARKAKAAGSTRFCMGAAWKNPHERDMPYLEQMVQGVKAMGLEACMTLGTLSESQAQRLANAGLDYYNHNLDTSPEFYGNIITTRTYQERLDTLEKVRDAGIKVCSGGIVGLGETVKDRAGLLLQLANLPTPPESVPINMLVKVKGTPLADNDDVDAFDFIRTIAVARIMMPTSYVRLSAGREQMNEQTQAMCFMAGANSIFYGCKLLTTPNPEEDKDLQLFRKLGLNPQQTAVLAGDNEQQQRLEQALMTPDTDEYYNAAAL	3.43 ± 0.23 h	2.236 ± 0.018 h	0.669 h	0.723 ± 0.084 h	0.799 ± 0.048 h	0.8031 ± 0.0044 h	1.3 ± 0.08 h	1.44 ± 0.52 h	0.897 ± 0.17 h	1.09 ± 0.08 h	1.44 ± 0.36 h	2.68 ± 0.76 h
